The target in one assay is T1, m^solCgi-58 (mouse, UniProt Q9DBL9 2-351, S239E).
T1 construct: mouse Cgi-58, Lys-2–Asp-351, with S239E; preceded by a TEV protease cleavage site and cleaved by TEV; used for NMR experiments only; also called mCgi-58^S239E; cgi-58_S239E variant with increased solubility; source: E. coli BL21(DE3), co-expressed with the chaperone Tig, purified (His-Trap, TEV cleavage, Superdex 200); not shown: His tag, N-terminal, cleaved; SUMO, N-terminal, cleaved
T1 sequence (looked up): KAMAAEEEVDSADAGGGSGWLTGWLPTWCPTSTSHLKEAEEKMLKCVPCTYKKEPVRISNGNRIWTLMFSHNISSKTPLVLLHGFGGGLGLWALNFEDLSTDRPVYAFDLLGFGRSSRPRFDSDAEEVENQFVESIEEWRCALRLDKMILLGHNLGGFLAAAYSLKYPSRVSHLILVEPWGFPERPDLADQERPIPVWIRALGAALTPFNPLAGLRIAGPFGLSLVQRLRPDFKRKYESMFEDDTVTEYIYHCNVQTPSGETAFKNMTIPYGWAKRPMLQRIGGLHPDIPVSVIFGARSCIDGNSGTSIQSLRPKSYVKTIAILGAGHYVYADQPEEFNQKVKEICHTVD
As to the kind of experiment: NMR titration; 1H-15N HSQC of 50 μM 15N labeled A-Fabp with 0, 10, 25, 50, 100 and 200 μM m^solCgi-58; 15 mM Na2HPO4/KH2PO4, pH 7.0, 300 mM NaCl, 1 mM DTT, 1 mM EDTA; 298 K. The conditions noted are these: both partners purified.

In the next assay the target is T2, Gst-Cgi-58 (mouse, UniProt Q9DBL9 1-351, Sulfo-SBED cross-linker covalently linked (label transfer); fluorescent label NT-495 by NHS coupling (microscale thermophoresis)).
T2 construct: comparative gene identification-58 (Cgi-58), mouse; also called Gst-tagged Cgi-58; mouse Gst-Cgi-58
T2 sequence (looked up): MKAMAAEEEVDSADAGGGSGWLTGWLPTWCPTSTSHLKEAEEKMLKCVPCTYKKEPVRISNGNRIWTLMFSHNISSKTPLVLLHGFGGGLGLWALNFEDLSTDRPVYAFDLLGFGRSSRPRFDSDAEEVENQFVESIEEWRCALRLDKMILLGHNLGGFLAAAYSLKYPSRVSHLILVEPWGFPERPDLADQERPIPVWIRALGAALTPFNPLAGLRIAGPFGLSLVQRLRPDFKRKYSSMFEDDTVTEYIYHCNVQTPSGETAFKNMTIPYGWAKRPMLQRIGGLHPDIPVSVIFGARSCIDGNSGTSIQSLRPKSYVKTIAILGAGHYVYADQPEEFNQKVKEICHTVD
As to the kind of experiment: MST; Gst-tagged Cgi-58 labelled with NT-495 (NHS coupling) at constant amount; unlabeled Strep-tagged A-Fabp 8 nM to 250 μM; 100 mM Tris, pH 8.0, 150 mM NaCl, 1 mM EDTA, 0.05% Tween 20; Monolith NT.115, duplicate. The note with it: both partners purified.

B1: Strep-tagged A-Fabp (natural protein, human, UniProt P15090 1-132, looked up)
chain: MCDAFVGTWKLVSSENFDDYMKEVGVGFATRKVAGMAKPNMIISVNGDVITIKSESTFKNTEISFILGQEFDEVTADDRKVKSTITLDGGVLVHVQKWDGKSTTIKRKREDDKLVVECVMKGVTSTRVYERA
modifications: 15N (and 13C) labelled in the NMR experiments
notes: residue numbers start with methionine as the first amino acid; vector pASK-IBA5plus; also called Strep-A-Fabp; source: E. coli BL21(DE3), purified (Strep-Tactin)
For the molecule B1, in the assay with m^solCgi-58, the binding result is given as “binds”. The Kd (in general, a measure of binding affinity in units of concentration) with Gst-Cgi-58 worked out at 192 ± 22 µM.

The record behind these values is article PMC4513104, “Fatty Acid-binding Proteins Interact with Comparative Gene Identification-58 Linking Lipolysis with Lipid Ligand Shuttling*” (The Journal of Biological Chemistry, 2015).
